Results from article PMC2756588.

T1: Abp1, P15891
T1 sequence (P15891 535-592, looked up): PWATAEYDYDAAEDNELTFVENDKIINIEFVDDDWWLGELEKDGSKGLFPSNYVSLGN

T2: Bbc1, P47068
T2 sequence (P47068 1-78, looked up): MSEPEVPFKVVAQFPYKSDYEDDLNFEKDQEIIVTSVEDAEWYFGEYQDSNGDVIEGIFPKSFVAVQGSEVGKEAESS

T3: Boi1, P38041
T3 sequence (P38041 1-86, looked up): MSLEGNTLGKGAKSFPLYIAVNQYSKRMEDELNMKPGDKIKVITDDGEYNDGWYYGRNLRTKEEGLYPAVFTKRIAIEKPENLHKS

T4: Boi2, P39969
T4 sequence (P39969 32-116, looked up): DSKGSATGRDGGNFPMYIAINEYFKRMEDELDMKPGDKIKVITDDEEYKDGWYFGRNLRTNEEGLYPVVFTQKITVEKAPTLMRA

T5: Bud14, P27637
T5 sequence (P27637 247-328, looked up): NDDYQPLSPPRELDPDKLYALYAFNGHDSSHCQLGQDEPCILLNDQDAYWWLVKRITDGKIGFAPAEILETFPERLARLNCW

T6: Bzz1-1, P38822
T6 sequence (P38822 478-572, looked up): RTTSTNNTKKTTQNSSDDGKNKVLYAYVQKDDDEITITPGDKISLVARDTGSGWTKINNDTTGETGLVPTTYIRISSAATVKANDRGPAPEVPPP

T7: Bzz1-2, P38822
T7 sequence (P38822 568-633, looked up): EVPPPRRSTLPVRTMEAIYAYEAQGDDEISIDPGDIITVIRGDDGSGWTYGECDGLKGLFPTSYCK

T8: Cdc25, P04821
T8 sequence (P04821 50-136, looked up): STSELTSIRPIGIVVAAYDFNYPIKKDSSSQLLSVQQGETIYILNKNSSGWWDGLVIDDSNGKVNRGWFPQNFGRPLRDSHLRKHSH

T9: Cyk3, Q07533
T9 sequence (Q07533 1-83, looked up): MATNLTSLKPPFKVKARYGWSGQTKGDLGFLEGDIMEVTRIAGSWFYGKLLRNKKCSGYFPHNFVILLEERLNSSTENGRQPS

T10: Fus1, P11710
T10 sequence (P11710 432-512, looked up): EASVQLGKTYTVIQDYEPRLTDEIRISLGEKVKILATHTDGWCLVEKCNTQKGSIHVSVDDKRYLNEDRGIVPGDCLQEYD

T11: Hof1, Q05080
T11 sequence (Q05080 590-669, looked up): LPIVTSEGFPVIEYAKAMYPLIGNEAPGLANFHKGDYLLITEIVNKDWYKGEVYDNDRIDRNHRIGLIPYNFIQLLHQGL

T12: Hse1, P38753
T12 sequence (P38753 208-285, looked up): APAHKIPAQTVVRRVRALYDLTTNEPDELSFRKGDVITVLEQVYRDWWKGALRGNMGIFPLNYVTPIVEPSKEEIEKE

T13: Lsb1, P53281
T13 sequence (P53281 45-122, looked up): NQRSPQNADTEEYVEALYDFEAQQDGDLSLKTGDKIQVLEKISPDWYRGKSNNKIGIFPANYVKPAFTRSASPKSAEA

T14: Lsb3, P43603
T14 sequence (P43603 385-451, looked up): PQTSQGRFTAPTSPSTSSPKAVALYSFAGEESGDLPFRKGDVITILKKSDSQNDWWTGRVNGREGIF

T15: Lsb4, P32793
T15 sequence (P32793 402-468, looked up): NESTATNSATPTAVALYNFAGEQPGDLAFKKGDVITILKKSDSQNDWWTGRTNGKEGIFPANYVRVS

T16: Myo5, Q04439
T16 sequence (Q04439 1072-1160, looked up): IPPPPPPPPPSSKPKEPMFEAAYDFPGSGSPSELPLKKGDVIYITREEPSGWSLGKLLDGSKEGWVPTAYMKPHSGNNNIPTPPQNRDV

T17: Nbp2, Q12163
T17 sequence (Q12163 103-180, looked up): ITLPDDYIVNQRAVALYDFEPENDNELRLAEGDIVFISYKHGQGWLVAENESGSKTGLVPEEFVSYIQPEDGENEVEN

T18: Pex13, P80667
T18 sequence (P80667 295-386, looked up): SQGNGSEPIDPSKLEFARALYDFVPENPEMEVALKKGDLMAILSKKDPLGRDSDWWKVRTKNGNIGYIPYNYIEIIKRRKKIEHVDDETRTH

T19: Pin3, Q06449
T19 sequence (Q06449 53-122, looked up): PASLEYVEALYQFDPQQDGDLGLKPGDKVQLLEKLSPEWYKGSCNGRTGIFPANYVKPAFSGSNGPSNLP

T20: Sla1-2, P32790
T20 sequence (P32790 60-140, looked up): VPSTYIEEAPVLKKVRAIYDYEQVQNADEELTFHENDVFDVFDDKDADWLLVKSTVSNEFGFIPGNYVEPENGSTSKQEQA

T21: Sla1-3, P32790
T21 sequence (P32790 344-424, looked up): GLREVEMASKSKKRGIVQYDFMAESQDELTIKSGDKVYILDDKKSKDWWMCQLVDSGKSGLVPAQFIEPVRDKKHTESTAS


How the values were obtained:
Assay in all cases: SPOT array
Abp1, P15891 = molecular target: T1, Abp1, P15891; conditions: median of control spots 935
Bbc1, P47068 = molecular target: T2, Bbc1, P47068; conditions: median of control spots 796
Bem1-1, P29366 = conditions: median of control spots 4282
Sequence of Bem1-1, P29366 (P29366 55-141): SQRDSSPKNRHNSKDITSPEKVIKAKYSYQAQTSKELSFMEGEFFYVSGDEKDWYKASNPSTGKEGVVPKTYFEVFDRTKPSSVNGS

Bem1-2, P29366 = conditions: median of control spots 4347
Sequence of Bem1-2, P29366 (P29366 139-227): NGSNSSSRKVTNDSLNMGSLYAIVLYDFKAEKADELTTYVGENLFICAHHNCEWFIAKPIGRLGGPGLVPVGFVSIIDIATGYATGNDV

Boi1, P38041 = molecular target: T3, Boi1, P38041; conditions: median of control spots 1162
Boi2, P39969 = molecular target: T4, Boi2, P39969; conditions: median of control spots 1161
Bud14, P27637 = molecular target: T5, Bud14, P27637; conditions: median of control spots 956
Bzz1-1, P38822 = molecular target: T6, Bzz1-1, P38822; conditions: median of control spots 4446
Bzz1-2, P38822 = molecular target: T7, Bzz1-2, P38822; conditions: median of control spots 4538
Cdc25, P04821 = molecular target: T8, Cdc25, P04821; conditions: median of control spots 969
Cyk3, Q07533 = molecular target: T9, Cyk3, Q07533; conditions: median of control spots 1451
Fus1, P11710 = molecular target: T10, Fus1, P11710; conditions: median of control spots 1200
GST = conditions: median of control spots 978
Hof1, Q05080 = molecular target: T11, Hof1, Q05080; conditions: median of control spots 4086
Hse1, P38753 = molecular target: T12, Hse1, P38753; conditions: median of control spots 1727
Lsb1, P53281 = molecular target: T13, Lsb1, P53281; conditions: median of control spots 388
Lsb3, P43603 = molecular target: T14, Lsb3, P43603; conditions: median of control spots 406
Lsb4, P32793 = molecular target: T15, Lsb4, P32793; conditions: median of control spots 397
Myo3, P36006 = conditions: median of control spots 468
Myo5, Q04439 = molecular target: T16, Myo5, Q04439; conditions: median of control spots 471
Nbp2, Q12163 = molecular target: T17, Nbp2, Q12163; conditions: median of control spots 357
Pex13, P80667 = molecular target: T18, Pex13, P80667; conditions: median of control spots 1341
Pin3, Q06449 = molecular target: T19, Pin3, Q06449; conditions: median of control spots 2171
Rvs167, P39743 = conditions: median of control spots 2707
Sequence of Rvs167, P39743 (P39743 419-482): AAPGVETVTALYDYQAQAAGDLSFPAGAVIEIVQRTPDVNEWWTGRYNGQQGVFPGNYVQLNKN

Sho1, P40073 = conditions: median of control spots 1148
Sequence of Sho1, P40073 (P40073 287-367): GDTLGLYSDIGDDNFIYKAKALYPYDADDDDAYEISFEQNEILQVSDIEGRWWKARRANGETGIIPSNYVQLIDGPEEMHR

Sla1-2, P32790 = molecular target: T20, Sla1-2, P32790; conditions: median of control spots 712
Sla1-3, P32790 = molecular target: T21, Sla1-3, P32790; conditions: median of control spots 5475

Row | Binder | SPOT intensity (Abp1, P15891) | SPOT intensity (Bbc1, P47068) | SPOT intensity (Bem1-1, P29366) | SPOT intensity (Bem1-2, P29366) | SPOT intensity (Boi1, P38041) | SPOT intensity (Boi2, P39969) | SPOT intensity (Bud14, P27637) | SPOT intensity (Bzz1-1, P38822) | SPOT intensity (Bzz1-2, P38822) | SPOT intensity (Cdc25, P04821) | SPOT intensity (Cyk3, Q07533) | SPOT intensity (Fus1, P11710) | SPOT intensity (GST) | SPOT intensity (Hof1, Q05080) | SPOT intensity (Hse1, P38753) | SPOT intensity (Lsb1, P53281) | SPOT intensity (Lsb3, P43603) | SPOT intensity (Lsb4, P32793) | SPOT intensity (Myo3, P36006) | SPOT intensity (Myo5, Q04439) | other results
1 | RSKRLFPVRPMATAH | 110 | 49 | 0 | 14 | 0 | 0 | 6 | 1 | 13 | 22 | 0 | 17 | 0 | 7 | 12 | 5 | 4 | 15 | 2 | 2 | SPOT intensity (Nbp2, Q12163): 46; SPOT intensity (Pex13, P80667): 11; SPOT intensity (Pin3, Q06449): 12; SPOT intensity (Rvs167, P39743): 9; SPOT intensity (Sho1, P40073): 90; SPOT intensity (Sla1-2, P32790): 0; SPOT intensity (Sla1-3, P32790): 36
2 | PKMLPIPSKPTLFDL | 173 | 0 | 0 | 0 | 0 | 0 | 0 | 0 | 0 | 0 | 0 | 0 | 1 | 0 | 0 | 2 | 15 | 42 | 36 | 52 | SPOT intensity (Nbp2, Q12163): 19; SPOT intensity (Pex13, P80667): 52; SPOT intensity (Pin3, Q06449): 69; SPOT intensity (Rvs167, P39743): 0; SPOT intensity (Sho1, P40073): 164; SPOT intensity (Sla1-2, P32790): 3; SPOT intensity (Sla1-3, P32790): 0
3 | TSIEIPKRSPLRFTS | 60 | 12 | 0 | 0 | 3040 | 2740 | 5 | 0 | 0 | 13 | 0 | 0 | 0 | 0 | 0 | 0 | 5 | 8 | 4 | 2 | SPOT intensity (Nbp2, Q12163): 0; SPOT intensity (Pex13, P80667): 19; SPOT intensity (Pin3, Q06449): 10; SPOT intensity (Rvs167, P39743): 0; SPOT intensity (Sho1, P40073): 8; SPOT intensity (Sla1-2, P32790): 792; SPOT intensity (Sla1-3, P32790): 0
4 | GQYRRTIVIPRRFFT | 184 | 258 | 0 | 17 | 30 | 6 | 13 | 3 | 0 | 156 | 4 | 48 | 5 | 8 | 11 | 19 | 16 | 28 | 17 | 2 | SPOT intensity (Nbp2, Q12163): 120; SPOT intensity (Pex13, P80667): 20; SPOT intensity (Pin3, Q06449): 18; SPOT intensity (Rvs167, P39743): 0; SPOT intensity (Sho1, P40073): 124; SPOT intensity (Sla1-2, P32790): 8; SPOT intensity (Sla1-3, P32790): 58
